In PMC9122904, “Insights into the client protein release mechanism of the ATP-independent chaperone Spy” (Nature Communications, 2022):

What was measured:
Experiment in all cases: BLI; Octet RED96; client biotinylated and loaded on streptavidin sensors; Spy or Spy variant in solution at 0.25, 0.5, 1, 1.5 and 2 μM; 40 mM HEPES, 150 mM NaCl, pH 7.5; Kd calculated as koff/kon
Conditions in all cases: both partners purified
[1] = molecular target: T1, Spy D26R (UniProt P77754 24-161, D26R)
T1 construct: source: E. coli BL21 (DE3), purified (Ni-NTA, cation exchange, SEC); not shown: His6, N-terminal, cleaved; SUMO, N-terminal, cleaved
T1 sequence (looked up): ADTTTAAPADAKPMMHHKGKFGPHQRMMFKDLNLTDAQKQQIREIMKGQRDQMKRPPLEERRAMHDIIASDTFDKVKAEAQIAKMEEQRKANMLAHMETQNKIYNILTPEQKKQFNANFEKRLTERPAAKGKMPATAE

[2] = molecular target: T2, Spy D26K (UniProt P77754 24-161, D26K)
T2 construct: source: E. coli BL21 (DE3), purified (Ni-NTA, cation exchange, SEC); not shown: His6, N-terminal, cleaved; SUMO, N-terminal, cleaved
T2 sequence (looked up): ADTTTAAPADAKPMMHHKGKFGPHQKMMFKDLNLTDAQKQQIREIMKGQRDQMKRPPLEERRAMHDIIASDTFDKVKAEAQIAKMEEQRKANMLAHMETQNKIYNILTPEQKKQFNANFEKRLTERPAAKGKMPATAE

[3] = molecular target: T3, Spy D26E (UniProt P77754 24-161, D26E)
T3 construct: source: E. coli BL21 (DE3), purified (Ni-NTA, cation exchange, SEC); not shown: His6, N-terminal, cleaved; SUMO, N-terminal, cleaved
T3 sequence (looked up): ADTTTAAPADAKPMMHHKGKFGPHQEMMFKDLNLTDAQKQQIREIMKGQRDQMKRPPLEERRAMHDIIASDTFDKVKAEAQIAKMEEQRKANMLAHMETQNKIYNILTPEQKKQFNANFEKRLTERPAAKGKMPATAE

[4] = molecular target: T4, Spy_(R43D) (UniProt P77754 24-161, R43D)
T4 construct: source: E. coli BL21 (DE3), purified (Ni-NTA, cation exchange, SEC); not shown: His6, N-terminal, cleaved; SUMO, N-terminal, cleaved
T4 sequence (looked up): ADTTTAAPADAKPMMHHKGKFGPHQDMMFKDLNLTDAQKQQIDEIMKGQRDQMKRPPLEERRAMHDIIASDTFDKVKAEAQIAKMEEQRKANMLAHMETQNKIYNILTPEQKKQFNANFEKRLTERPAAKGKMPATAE
In short: (§1)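 Client proteins were biotinylated with EZ-link NHS-biotin at a 1:1 molar ratio, loaded onto streptavidin sensors, and measured by biolayer interferometry on an Octet RED96. The loaded sensors were dipped into 40 mM HEPES, 150 mM NaCl, pH 7.5 holding the analyte protein at 0.25, 0.5, 1, 1.5 or 2 μM, then moved to buffer without it. Fitting the wavelength-shift association and dissociation curves in SigmaPlot 12.0 gave the observed association rate and koff, kon was taken from the observed rate plotted against analyte concentration, and Kd was calculated as koff/kon.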

[5] = molecular target: T5, Spy D26K K75D (UniProt P77754 24-161, D26K | K75D)
T5 construct: source: E. coli BL21 (DE3), purified (Ni-NTA, cation exchange, SEC); not shown: His6, N-terminal, cleaved; SUMO, N-terminal, cleaved
T5 sequence (looked up): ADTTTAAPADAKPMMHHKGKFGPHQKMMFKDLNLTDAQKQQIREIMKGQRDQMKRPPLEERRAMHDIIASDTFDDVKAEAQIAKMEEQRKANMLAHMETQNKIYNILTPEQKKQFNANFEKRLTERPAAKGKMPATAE
In short: as §1

[6] = molecular target: T6, Spy_(D26K K54D R55D) (UniProt P77754 24-161, D26K | K54D | R55D)
T6 construct: source: E. coli BL21 (DE3), purified (Ni-NTA, cation exchange, SEC); not shown: His6, N-terminal, cleaved; SUMO, N-terminal, cleaved
T6 sequence (looked up): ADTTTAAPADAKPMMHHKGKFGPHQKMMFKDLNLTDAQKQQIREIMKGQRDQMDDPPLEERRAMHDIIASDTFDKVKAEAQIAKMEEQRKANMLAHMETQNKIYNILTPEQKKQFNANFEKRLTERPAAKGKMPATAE
In short: as §1

[7] = molecular target: T7, Spy D26K K121D R122D (UniProt P77754 24-161, D26K | K121D | R122D)
T7 construct: source: E. coli BL21 (DE3), purified (Ni-NTA, cation exchange, SEC); not shown: His6, N-terminal, cleaved; SUMO, N-terminal, cleaved
T7 sequence (looked up): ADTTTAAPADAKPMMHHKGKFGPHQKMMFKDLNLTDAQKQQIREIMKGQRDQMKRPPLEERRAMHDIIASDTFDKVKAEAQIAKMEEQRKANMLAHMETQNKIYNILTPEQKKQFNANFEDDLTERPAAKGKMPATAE
In short: as §1

[8] = molecular target: T8, Spy D26K R43D (UniProt P77754 24-161, D26K | R43D)
T8 construct: source: E. coli BL21 (DE3), purified (Ni-NTA, cation exchange, SEC); not shown: His6, N-terminal, cleaved; SUMO, N-terminal, cleaved
T8 sequence (looked up): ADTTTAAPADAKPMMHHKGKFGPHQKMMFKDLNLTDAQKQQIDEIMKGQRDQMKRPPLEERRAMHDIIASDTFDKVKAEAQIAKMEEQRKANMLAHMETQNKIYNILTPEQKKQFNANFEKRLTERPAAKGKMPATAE
In short: as §1

- kon [1]: 287000 M⁻¹ s⁻¹
- kon [2]: 317000 M⁻¹ s⁻¹
- kon [3]: 306000 M⁻¹ s⁻¹
- koff [4]: 0.533 s⁻¹
- koff [5]: 0.0595 s⁻¹
- koff [6]: 0.425 s⁻¹
- koff [7]: 0.202 s⁻¹
- koff [8]: 0.202 s⁻¹
B1: Im7 H40W L53A I54A (natural protein)
chain: MELKNSISDYTEAEFVQLLKEIEKENVAATDDVLDVLLEWFVKITEHPDGTDAAYYPSDNRDDSPEGIVKEIKEWRAANGKPGFKQG
modifications: biotin (EZ-link NHS-biotin, 1:1 molar ratio of biotin to protein)
notes: Im7 (colicin E7 immunity protein) with H40W L53A I54A; Spy was made with an N-terminal His6-SUMO tag that was cleaved; also called Im7AAW; partially folded client; source: purified by a similar procedure to Spy
